test: label from the status in PepcDB records
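Further: failed if final PepcDB status was selected cloned or expressed and not failed if soluble or beyond.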

Sequence | protein production
MSGDVQPRKRKDKRRKRDDDESSHGVHITKMGNEDLHLHVHHDHGTGGHWCAKIIFFALMAVLLGLVGLIIMENRGLEDLDTPLSESRFSKVFDGWVDEHRDEHDGHDVQEPSGEALDDHDEHDDHDDHEDEDEEPLTEELEEELEEEEEPTEEDEPAADEEYEEDEDEENNAGENITAEDAEEEEEEEDNDDEGTVEATVEATTEATTEATGEYEAEEDDEDEAAADDDAVESTEAPLSKAEEQEDDEDEDEEEQEIEESVEPERSQYAAQSAPAKDNNDDDDDDDQDKNDADDGDDDEFESLAQQFENDPEDTVPAKAVESEEQDQDQADEEEPKEEGSSWLASQIKPKEAAPAPAEKEDPFEQELRKANEEMIRENYAQALRSFNTLTTNFAHEPSAHLGRARLLELLAKKERSNQRLWEAIDAYKRYLAFGELVASNQEFQTAGESCIENLRFLGHHRQATTIHELLINRLPEDPRLRNQLSLTYLMVNNLQQVEKVAVETLKLWPNNAVAQLHYGLALRQFHADYAKALPYLKYAVESGEEGTQEAFFYLSLGETMQRLSMKSEALEVYGKGVAKGFFASLYQRSLYNEPRLRAQPFWQPKETGYERQLEKLTLNWRAIRDEGLALLGRSGFFEDEAELLRDKGVWQQYELYAQGRRVKDNCRRAPITCSLLEEFPESAGCRRGQVKFSVMQAKTHVWPHCGPTNCRLRAHLTLAAPEPEKASLRVAEQERTWREGELFIFDDSFEHEVWHNGSQSRLVLILDMWHPQLSAAQRRSLSPI | failed
MSGEDEQQEQTIAEDLVVTKYKMGGDIANRVLRSLVEASSSGVSVLSLCEKGDAMIMEETGKIFKKEKEMKKGIAFPTSISVNNCVCHFSPLKSDQDYILKEGDLVKIDLGVHVDGFIANVAHTFVVDVAQGTQVTGRKADVIKAAHLCAEAALRLVKPGNQNTQVTEAWNKVAHSFNCTPIEGMLSHQLKQHVIDGEKTIIQNPTDQQKKDHEKAEFEVHEVYAVDVLVSSGEGKAKDAGQRTTIYKRDPSKQYGLKMKTSRAFFSEVERRFDAMPFTLRAFEDEKKARMGVVECAKHELLQPFNVLYEKEGEFVAQFKFTVLLMPNGPMRITSGPFEPDLYKSEMEVQDAELKALLQSSASRKTQKKKKKKASKTAENATSGETLEENEAGD | failed
MSGEPDGERVIAGRYRLLSPLGEGGMGTVWRARDEVLRREVAVKEVRAPAGLSQPDVGRMYARLEREAWAAARISHPNVVTVYDVATDGGRPWIVMELVRGLSLADLLDAEGPLEPRRAALIGAEVLAALRAAHAAGVLHRDVKPANVLLANDGRVVLTDFGIARVEGSEALTMTGEVVGSPEFLAPERALGRTPGAASDLWSLGVLLYATVEGVSPFRQGTPLSTLRAIVDEAVPPPRRAGALGPVVEGLLRKDPAERLPAEEAERALRLVGAGGAPPGRGPRTGAPPSGAFAPTVVAAHPGPPTAPTPPMPVPAAGDTSAAGAPGAPGGRDRRARAVLLVGLAVLVLALAGLTYSLLDRSDGGGGTEGSGGSPGPGATSAATSGGAGEPSPPASSGTDGGQSGPAAQSVEVTVVGSRTHYSGACPPPHDRAPAFTATFTVGRLPAEVGYRWVTADGSVSDPGWRTLSFPSGGERSRQDGVVVTTHDDTGAFESAVRVEVRSPVRATSDAVAFSVTCGTGTETETGTGTPSGGASHSSSPSAPSSSPSA | failed
MSGITMAMRGPRLEFAVGAFLLLTLASLLVLAVASTNQRWGFGSSQYTLTARFSQIGQLRAQAPVKIGGVTIGKVSDISLDPTKFDSIVTLSLDTRYKDLPADTSAGIFTSGLLGESYIGLQPGGDPDTLKPGDEIGFTQPAVDLLQLVGKYMFSGGGSGSNANVPAATNGQAPAPARTAPPPTEPHQ | failed
MSGLLPLLDFAGYVALLLWGVHMVQTGVQRAFGAALSIALGRALGTRLRAFASGLGITAALQSSTATGLMITGFAAGGVVALVPALAAMLGANVGTTLIVQLLSFDLTSLAPILILAGVWMFRRAAPGRTRDLGRVFIGLGLLLLSLHQLVQLFQPFETAPLLGVLLDALASQPVAAVLLAAALTWAAHSSVAVVVLVMSLASHGMVNPALAFALVLGANLGTAINPMIEGVTGDDPAARRLPLGNLLTRVAGVLAGIILLPWLQPWLSGLAGDPAHAVANFHTLFNVVIALVFLPILTPYAALLTRWLPKRADPNDPARPQYLDEWAHDVPAVALGNAAREALRMADMLQTLLLYARAGFKRDNRHRMVQARQLDSALDKLETAITTYLATLDQENMTREDHQRLDTILAFCSNIGHAGDIAYHGLLNHIGRLRKQGLLLSADQRASLDATLGELIANQRQAAALFVTDDLRQARALAGEKARFRALEAEAAETQLQQIKSGKVDAAEVGALYLDILRDLKGINSHVVGASAYPLLARHGELLPSRLRDAGN | failed
MSGMAKYMEIYIDIRDKINQNKYEINEKLPDGDSMARTYDCSKLTVKKALDMLVQEGMIIRRRGAGTFVKSHSTNGGEFALGPMSGLVNTFGKDNIKSKVILFSIEKPSKEVAEKLEMQDDYIYRIIRMREVGHKAYSIEHTYMPLAIIPGLEPHHLEDSIYNYIRDDLKLKMQSAHVWVRGDKSNQEDSKLLDLEEPTFMMEIEKLAHLEDGRVFEYSITRHTYESFVFETVFVQN | failed
MSGNSDEATAPGADWDALAASFDDEPDHGLRDAEVRRAWAARLASWLPAPPGDVLDLGCGTGSLSLLAAEQGHRVTGVDLSPAMVELARTKLAGRDAVFLTGDAAAPPVGEQRFDAVLVRHVLWTLPDPGRALRHWRQLLRPGGRLVLVEGVWGSVSPVGIPADRVTALLGPLTGQARVERLSDDPSLWGREVADERYAVVATYG | failed
MSGNVGAGRHADELAIRTVQYRWLEATRKFDRQVLSSLMTDDVVFLTPGRLPFGKEEFLAACEQNDQRVIIEASATFEEIVIVEPMAYTRTHLHIKVTPRSGGAVRELAGHAMSIFRRSMFGEWQLARDANLVVPI | not failed
MSGSEYSEVDVNEGDSIWALADQYAAKSDMAKADFVSWVEKENNLTDGHVKAGDYVVIPVHETKLQRSDSTIQLANQLEHHHHHH | not failed
MSGSGKTITQMKSTAILAPVIAVILILSACGKPMDAQALVAEAKQYQQQGNDKAAIIQLKNALQQSPNDPEIRYLLGTLYNREGDIQSAEKELNKALDLGMDPVKVLPGLSRAWLGMGKFQQVLDETGKLSDKGNFAELLALRGNASLALGKFEEAKVLFEQALQDKPGFSDALTGLARYSLARNDIESAMNFSEEAVKLNPENSDAVLFRGDLLRAQNKIDEALADYDKAIKLNPESEAAYINRATISISTKKFEAAQADLDAVRKIAPGSLLAAYTQALLDFSQGKHAVALETLQRILSSAPGHLPSVLLAGATQFALGSFPQAGQYVEQYLKAIPNNLYAIKLMASIQLKNNQVKQAITTLTPALKSVQQDPQLFALAGEAYMRSKDFTKASEYFEKAGELAPDNASLYTALAMSKMGQGDSKSAIADLEQAAQLDDQSGRAGVMLVLTHLQLREFDKALKAVESQLAEQPDNPLLHNLKGGIYLGKKDLAKARSSFNQALSIQSDYFPAISNLARIDMQENHPEAAQQRFEDVLKRDKKNVQAMNALAGIALARGNKEEATGWLEKASRENPDELQPALQLGAHYLAVNDPGKSLALAKKLQGIHPDNLSIVELLARSYLATGDKDAALENFQKLAARLPDSAPAQLQLAQIYSSMQNNKAAAGSLKKALTIKPDLWEAKLMQAQLAVAADRVEDAFNISHDLQKQHEKLPVGFELEGDLQMRQKNAAAAATAYEKALSRQKNSQLLIKLHTALSQSGKEKQADQRLNQWLKENPTDAVTRTYLAGVYLASKKYDPAIKEYQTILKQHPDHAATLNNLAWVYQQKKDPVALEYAEKAYKQAPDSPAILDTLGWILIEKGDAERGTSLLQKAVTAVPEAAEIRYHYAVGLFKSGNKAEARQELEKLLGGDKPFPQRDDAKKLLESL | failed
MSGSKTSAEKKESETEKSSDIAQVKIKDVSYTLPSKYDKSTSDDQLVLKVNVAVKNTGKDPLNVDSMDFTLYQGDTKMSDTDPEDYSEKLQGSTINADKSVEGNLFFVVDKGKQYELNYTPESYGDKKPKSVTFKIDGKDKKILATADKLQDSAKALSAYVDVLLFGKDNADFEKITGANKNEIVNDFNESAKDGYLSASGLSSTYADSKALDNIVNGIKEGLSKNSSIQAKTTSISKDEAIVEATVKPVDASSLSDRIEDKVKDYYSKNSSASYEEAVKYALQVYPEEFKKLGPASSEKTVEVKMKKNDIDQWQLDMDDYRAAELVEAFIKELEHHHHHH | not failed
MSGSNVAPEDKRMEDRKFRANIPPQTIVFCTVYQTTIGLTNSQHQKIRLASLRLPLLFFQQRQTSAAPPKEDVMNEETLKKIQSNPKYLELVHKKTSLGWTLAIVMLVIYYGYILVLAFAPSLLGKPLYQGATMTVGIPVGVCIILSAFVLTGIYVRRANQEFDPLTQQIVEEAK | failed
MSGTRHQIVVALGDTRYRVDRPFGTWPQTAGKVSDVVVLRDGRVLVLLRSDPYVDPDGPRVIVLSCDGDYLGAWGDLDIADAHLMTPAPDGRLFIVDRDMHEIIVFSADGQRVGGIGTRGAPGTPFNHPTDVAFAPSGDFYVSDGYAGWHVHRFAGDGTHLATWGAFGSGRGEFLEPHSLWCLPDGRVVVVDRCNNRLQVFDADGVFLDEWTGFHRAVGIWGDDAGDIFVSDQVPSLHRISQNGTRLGRARPVLNGAHGIFGSPDGTIYLAEANPSRVSRLTPL | failed
MSGVLLLFIIGFIGSFISGMVGIGGAIINYPMILYIPVLLGFTGYTSHEVSGITAVQVFFATFAGAWAYRKSTDMNKMLVVYMGASILIGSFIGSFSANLLDEHAVNVVYTVLATIAAMMMFVPKKNNSGAVKYNKWLASVLAFIVGGVSGIIGAGGAFLLVPIMLVILKLPLRMTIATSIAITFISSVGITTGKVITGQVVIIPALIIAVASIFAAPLGARVGKRINQKVLQYMLSILIVGTAVKMWIDMILK | failed
MSHDHHHHHGPGAAHGAGGHSHAPQDFGRAFAIGIALNMVFVVAEAAFGYFSNSMALIADAGHNLSDVAGLVVAWIAAGLSKRPPSARYTYGLRGSSILAALFNAVFLLLAVGAIGWEAVVRLFAPEPVAGITVMVVAGIGIVINAVTAWLFASGRHSDLNIRGAYLHMAADAAVSAAVVVAGVIILSTGWYWIDPAVSLIVAVVIVWGTWGLLRDSTALSLAAVPRDIDPTAVRAFLSKLPGVTQVHDLHIWGMSTTEVALTCHLVMPGGSPGDPFLVDLAHELQHDFGIAHTTVQIETDPNTVCALAPEHVV | failed
MSHGGGGHAAELYPEEQIFAVGIALSLVGCYLANFLSPYGLGMLIGGLLASAACVAGANTVRKVAAYGLGTGVPSIGMVSLGMGTLAAVAGVLIPDYFNLPYLVAPIITLIVSAVIGYIVGRLTVNPVGMKIPIMVRSMTFLSIAGAMALLGFTVAYVGSLEPQKYIDYALNNGMMALAFIAAGMAILHPFNACLGPNESHKRTLTLAVACGFITWFVFSVVKLDIVSIIVSIILWAIVYVKFVKMSFKDACAVLHVPEIPKKEE | failed
MSHRRDYGSDAVHVRITHDPPPENCFPNSGDSSVWATEDDYSRVWAINSDGAESPSKKTRSSSSSEIGKSFFKTKLCFKFRAGTCPYSASSCHFAHSAEELRLPPPPPPNWQETVTEASRNRESFAVSLGPRGNVAQTLKSPNWKTRICNKWQTTGYCPFGSHCHFAHGPSGKATAFFIY | failed
MSHTEAATVHSTAPASHPVRIALIGAGRIGSNHAEIVARLVPGASLVAVSDPVGESAQRLATTLGASLATTTVDDVLTSDEVDAVLITAPARSHTDLVVAAAAAGKHVFVEKPMAVTLADADRAIAAAADAGIVLQVGFNRRFAPGFAAARAAIDAQKVGAPQLLRSLTRDPGPYTADPARVPQWTIFLETLIHDFDTLCFLNPDARPVRVHAVADALVRPDAKGAGHLDTAVVTVQFDNGAIATAEASFSALYGYDVRAEVFGSGGMITAGSGLSTDMTYYGPDGMHADTARRDTDLLHSAYLGELTAFVDAIRTHTPAVVTGQDARTALSIALAAIRSVETGSAVDLDG | failed
MSHTLKSVAEDWFAIKKTTITEVTAKSLWRKFENHVFPKLGHRPIDKILAPEAIEALKPLAAKGNLETTGKIIGHLNNIMTHAVNTGILHHNPLSGIRSAFSAPKVTNLEHHHHHH | not failed

Source: a protein production outcome set (Wang et al. 2014)
